Numbering of substitutions follows the chain as printed.

The target in one assay is ACP (Escherichia coli) (UniProt P0A6A8). The conditions noted are these: cited from earlier work.
Assay [1] concerns the target T1, His6-LpxD (wild-type E. coli LpxD acyltransferase) (E. coli, UniProt P21645 3-341).
T1 sequence: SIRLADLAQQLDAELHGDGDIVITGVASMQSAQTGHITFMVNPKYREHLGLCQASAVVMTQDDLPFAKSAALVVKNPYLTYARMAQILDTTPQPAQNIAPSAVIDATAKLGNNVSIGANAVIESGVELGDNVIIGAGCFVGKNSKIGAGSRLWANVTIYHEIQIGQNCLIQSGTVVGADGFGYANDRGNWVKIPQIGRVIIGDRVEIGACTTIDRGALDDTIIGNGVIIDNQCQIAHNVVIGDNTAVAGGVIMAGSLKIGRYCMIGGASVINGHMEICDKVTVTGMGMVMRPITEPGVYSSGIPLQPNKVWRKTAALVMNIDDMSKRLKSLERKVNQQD
Description: crystal structure.

The target of assay [2] is T2, His239Ala His6-LpxD (catalytically inactive) (E. coli, UniProt P21645 3-341, His239Ala).
T2 sequence: T1 sequence with H237A
Description: crystal structure.

The term Kd denotes the constant that tells how readily two partners part at equilibrium. With LpxD (from UniProt P21645), in the assay with ACP (Escherichia coli), the equilibrium dissociation constant (Kd) was 59 nM.

B1: holo-ACP (E. coli acyl-carrier-protein with 4'-phosphopantetheine) (natural protein)
chain: SHMSTIEERVKKIIGEQLGVKQEEVTNNASFVEDLGADSLDTVELVMALEEEFDTEIPDEEAEKITTVQAAIDYINGHQA
modifications: 4'-phosphopantetheine (4'-PPT) attached to Ser36, free terminal thiol
Turning to B1, the binding result in assay [1] is listed as “binds”.

B2: R-3-hydroxymyristoyl-ACP (intact-acyl-ACP) (natural protein, E. coli)
chain: B1 chain
modifications: 4'-phosphopantetheine attached to Ser36, carrying R-3-hydroxymyristoyl (β-OH-C14) in thioester linkage
As usually defined, the stoichiometry N is the number of molecules, sites or subunits per partner or assembly. Turning to B2, the “stoichiometry N” value in assay [2] stood at 3 ACP per LpxD trimer.
